Results on three substances are retold here after paper PMC6249601.

The target in the assay is EBOV GP.10xhis. The assay is described as follows: SPR. The settings on record: for increase in kd values at pH 5.0: second pH 7.4.

Take REGN3470: the “increase in kd values at pH 5.0” value was “less than 2-fold”. In addition, for the setting “pH 5.0”, the koff (commonly the rate constant with which the complex falls apart) worked out at 0.000491 s⁻¹ and the t 1/2 (min) came to 23.5 min. For the setting “pH 6.0”, this substance gave a koff of 0.000367 s⁻¹ and a t 1/2 (min) of 31.4 min. For the same substance, under “pH 7.4”, the koff is 0.000432 s⁻¹ and the t 1/2 (min) was 26.7 min.
REGN3471: the “increase in kd values at pH 5.0” value was “less than 2-fold”. Also, for the setting “pH 5.0”, the koff was 0.000332 s⁻¹ and the t 1/2 (min) was found to be 34.8 min. Where the note is “pH 6.0”, this substance gave a koff of 0.000221 s⁻¹ and a t 1/2 (min) of 52.3 min. Also, for the setting “pH 7.4”, the koff was determined as 0.000195 s⁻¹ and the t 1/2 (min) stood at 59.1 min.
With REGN3479, the “increase in kd values at pH 5.0” value is on record as 3-fold. Under “pH 5.0”, the koff was found to be 0.000202 s⁻¹ and the t 1/2 (min) stood at 57.3 min. Under “pH 6.0”, this substance showed a koff of 0.000214 s⁻¹ and a t 1/2 (min) of 55.1 min. Where the note is “pH 7.4”, this substance yielded a koff of 7.83e-05 s⁻¹ and a t 1/2 (min) of 148 min.
